One block for each binder: values may come before it.
Tests used:
[1] = biological target: T1, PD-L1 on HPAC cells (pre-activated with IFNγ) (human, UniProt Q9NZQ7 19-290); test: flow cytometry on IFNγ-activated HPAC cells (PD-L1+), anti-human IgG secondary antibody, geometric mean
T1 construct: whole, on cells; also called PD-L1 expressing HPAC cells
Protocol: Cells were harvested, checked for viability and counted. 200′000 cells were incubated for 15 minutes at 4° C. with increasing concentrations of the antibodies diluted in FACS buffer (PBS 2% BSA, 0.1% NaN3). Cells were washed twice with cold FACS buffer and re-incubated for further 15 minutes at 4′C with a suitable anti-human IgG secondary antibody. Cells were washed twice with cold FACS buffer and resuspended in 150 μl FACS buffer with a compatible viability marker. Binding of antibodies to living cells was measured by flow cytometry using a Cytoflex Platform (Beckman Coulter). Data was analyzed with FlowJo™ v10 software (BD Life Sciences) and dose-response binding curves were drawn using GiraphPad Prism 9 software.

[2] = biological target: PD-L1 on engineered CHO-K1 artificial Antigen Presenting Cells (aAPC) (Homo sapiens (Human), UniProt Q9NZQ7 19-290); test: cell-based or functional assay
[3] = biological target: T2, human CD32a H167 (human, UniProt P12318 36-218); test: Octet (printed: Octet surface plasmon resonance)
T2 construct: Allelic variant named only as H167; also called hCD32a H167
T2 sequence (looked up): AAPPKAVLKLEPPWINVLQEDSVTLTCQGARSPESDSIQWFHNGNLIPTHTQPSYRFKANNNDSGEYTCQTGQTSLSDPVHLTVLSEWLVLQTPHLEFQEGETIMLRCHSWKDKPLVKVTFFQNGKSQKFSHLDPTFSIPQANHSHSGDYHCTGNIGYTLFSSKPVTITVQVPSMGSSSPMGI

[4] = biological target: T3, human CD32b (human, UniProt P31994 43-217); test: Octet (printed: Octet surface plasmon resonance)
T3 construct: also called hCD32b
T3 sequence (looked up): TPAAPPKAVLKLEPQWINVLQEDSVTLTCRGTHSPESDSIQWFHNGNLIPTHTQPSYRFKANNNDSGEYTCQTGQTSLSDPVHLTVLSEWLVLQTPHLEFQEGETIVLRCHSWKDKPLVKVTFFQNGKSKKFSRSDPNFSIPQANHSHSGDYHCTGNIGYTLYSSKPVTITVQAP

[5] = biological target: T4, human CD16a V158 (human, UniProt P08637 17-208); test: Octet (printed: Octet surface plasmon resonance)
T4 construct: Allelic variant named only as V158; also called hCD16a V158

[6] = biological target: T5, human CD16b NA2 (human, UniProt O75015 17-200, limits assumed); test: Octet (printed: Octet surface plasmon resonance)
T5 construct: also called hCD16b NA2

[7] = biological target: T6, human CD16a F158 (human, UniProt P08637 17-208); test: Octet (printed: Octet surface plasmon resonance)
T6 construct: Allelic variant named only as F158; also called hCD16a F158

[8] = biological target: T7, human CD32a R167 (human, UniProt P12318 36-218); test: Octet (printed: Octet surface plasmon resonance)
T7 construct: Allelic variant named only as R167; also called hCD32a R167
T7 sequence (looked up): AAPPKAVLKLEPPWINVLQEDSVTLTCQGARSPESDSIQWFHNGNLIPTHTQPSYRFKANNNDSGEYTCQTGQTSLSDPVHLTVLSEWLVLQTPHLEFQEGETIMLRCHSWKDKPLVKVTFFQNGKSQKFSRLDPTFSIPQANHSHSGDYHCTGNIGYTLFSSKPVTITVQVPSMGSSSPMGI

[9] = biological target: T8, mouse CD28 (mouse, UniProt P31041 20-149, limits assumed); test: Octet (printed: Octet surface plasmon resonance), n = 2
T8 construct: Recombinant form not described; also called CD28 (Mouse)

[10] = biological target: T9, cynomolgus PD-L1 (cynomolgus, UniProt G7PSE7 19-238); test: as above
T9 construct: Recombinant form not described; also called PD-L1 (Cynomolgus)

[11] = biological target: T10, mouse PD-L1 (mouse, UniProt Q9EP73 19-238, limits assumed); test: as above
T10 construct: Recombinant form not described; also called PD-L1 (Mouse)

[12] = biological target: T11, human PD-L1 (human, UniProt Q9NZQ7 19-238); test: as above
T11 construct: Recombinant form not described; also called PD-L1 (Human); B7-H1

[13] = biological target: T12, human CD28 (human, UniProt P10747 19-152); test: as above
T12 construct: Recombinant form not described; also called CD28 (Human)

[14] = biological target: T13, mouse CD16 (mouse, UniProt P08508 31-215); test: Octet (printed: Octet surface plasmon resonance)
T13 construct: also called mCD16
T13 sequence (looked up): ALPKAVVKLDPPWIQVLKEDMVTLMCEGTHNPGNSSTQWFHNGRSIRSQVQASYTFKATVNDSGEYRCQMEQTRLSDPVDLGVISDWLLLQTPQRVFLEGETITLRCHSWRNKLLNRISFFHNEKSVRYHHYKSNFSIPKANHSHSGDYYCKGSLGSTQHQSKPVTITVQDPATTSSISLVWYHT

[15] = biological target: T14, mouse CD64 (mouse, UniProt P26151 25-297); test: Octet (printed: Octet surface plasmon resonance)
T14 construct: also called mCD64
T14 sequence (looked up): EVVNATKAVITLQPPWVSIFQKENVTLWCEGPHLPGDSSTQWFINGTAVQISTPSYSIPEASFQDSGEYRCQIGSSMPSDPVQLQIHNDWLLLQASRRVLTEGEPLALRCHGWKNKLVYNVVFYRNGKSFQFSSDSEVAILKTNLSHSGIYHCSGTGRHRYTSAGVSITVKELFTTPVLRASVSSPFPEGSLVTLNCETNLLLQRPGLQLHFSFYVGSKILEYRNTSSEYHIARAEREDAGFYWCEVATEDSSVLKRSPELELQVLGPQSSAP

[16] = biological target: T15, mouse CD32b (mouse, UniProt P08101 30-207); test: Octet (printed: Octet surface plasmon resonance)
T15 construct: also called mCD32b
T15 sequence (looked up): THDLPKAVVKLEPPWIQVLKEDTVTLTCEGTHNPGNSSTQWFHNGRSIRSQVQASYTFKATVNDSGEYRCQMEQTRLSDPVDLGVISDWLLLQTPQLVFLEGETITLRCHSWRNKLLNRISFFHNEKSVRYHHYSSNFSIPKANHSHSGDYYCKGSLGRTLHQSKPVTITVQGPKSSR

[17] = biological target: T16, human neonatal Fc Receptor (FcRn) (human, UniProt P55899 24-297; P61769 21-119); test: Octet (printed: Octet surface plasmon resonance), n = 2
T16 construct: also called FcRn (Human)

[18] = biological target: T17, mouse neonatal Fc Receptor (FcRn) (mouse, UniProt Q61559 22-297; P01887 21-119); test: as above
T17 construct: also called FcRn (Mouse)
T17 sequence (looked up) 1: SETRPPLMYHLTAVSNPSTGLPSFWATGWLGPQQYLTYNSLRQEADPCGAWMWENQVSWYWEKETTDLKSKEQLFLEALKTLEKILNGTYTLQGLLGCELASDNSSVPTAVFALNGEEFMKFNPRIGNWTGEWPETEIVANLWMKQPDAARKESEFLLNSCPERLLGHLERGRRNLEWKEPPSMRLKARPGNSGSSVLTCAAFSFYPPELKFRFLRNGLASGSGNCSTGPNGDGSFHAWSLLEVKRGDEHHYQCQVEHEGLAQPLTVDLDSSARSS
T17 sequence (looked up) 2: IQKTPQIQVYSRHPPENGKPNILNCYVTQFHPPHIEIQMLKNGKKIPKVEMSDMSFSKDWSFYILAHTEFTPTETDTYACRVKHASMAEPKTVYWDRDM

[19] = biological target: T18, cynomolgus neonatal Fc Receptor (FcRn) (cynomolgus, UniProt Q8SPV9 24-297; Q8SPW0 21-119); test: as above
T18 construct: also called FcRn (Cynomolgus)

[20] = biological target: T19, cynomolgus CD28 (cynomolgus, UniProt Q0PDN3 19-152); test: Octet (printed: Octet surface plasmon resonance)
T19 construct: Recombinant form not described; also called CD28 (Cynomolgus)

[21] = biological target: T20, human CD64 (human, UniProt P12314 16-288); test: Octet (printed: Octet surface plasmon resonance), n = 1
T20 construct: also called hCD64

[22] = biological target: T21, cynomolgus CD16 (cynomolgus, UniProt Q8SPW2 17-208); test: Octet (printed: Octet surface plasmon resonance)
T21 construct: also called cyCD16
T21 sequence (Q8SPW2 17-208 limits assumed): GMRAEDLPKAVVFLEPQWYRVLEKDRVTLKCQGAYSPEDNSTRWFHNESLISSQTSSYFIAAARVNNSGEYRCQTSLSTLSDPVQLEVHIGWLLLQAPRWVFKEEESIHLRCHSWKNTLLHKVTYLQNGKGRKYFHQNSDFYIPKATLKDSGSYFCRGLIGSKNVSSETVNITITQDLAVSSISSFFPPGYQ

T1 sequence (Q9NZQ7 19-290): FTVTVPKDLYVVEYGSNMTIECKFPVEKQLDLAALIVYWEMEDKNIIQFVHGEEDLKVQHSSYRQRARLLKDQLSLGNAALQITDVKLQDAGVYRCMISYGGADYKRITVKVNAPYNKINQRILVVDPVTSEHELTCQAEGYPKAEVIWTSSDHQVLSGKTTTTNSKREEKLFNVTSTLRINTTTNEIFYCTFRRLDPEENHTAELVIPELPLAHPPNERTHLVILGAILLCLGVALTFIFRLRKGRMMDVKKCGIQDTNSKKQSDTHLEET
T11 sequence (Q9NZQ7 19-238 limits assumed): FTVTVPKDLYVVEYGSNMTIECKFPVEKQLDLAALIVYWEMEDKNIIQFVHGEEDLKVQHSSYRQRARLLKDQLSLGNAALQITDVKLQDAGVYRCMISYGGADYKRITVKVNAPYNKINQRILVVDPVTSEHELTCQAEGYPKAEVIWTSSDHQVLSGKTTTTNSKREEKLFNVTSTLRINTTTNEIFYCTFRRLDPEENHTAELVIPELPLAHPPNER
T10 sequence (Q9EP73 19-238 limits assumed): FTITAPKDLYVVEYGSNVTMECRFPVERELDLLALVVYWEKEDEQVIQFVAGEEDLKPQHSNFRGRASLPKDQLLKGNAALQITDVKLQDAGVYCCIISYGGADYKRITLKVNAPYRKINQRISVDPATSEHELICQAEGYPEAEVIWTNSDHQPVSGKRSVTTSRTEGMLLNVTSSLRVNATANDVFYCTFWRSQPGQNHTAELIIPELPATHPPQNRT
T5 sequence (O75015 17-200 N65S limits assumed): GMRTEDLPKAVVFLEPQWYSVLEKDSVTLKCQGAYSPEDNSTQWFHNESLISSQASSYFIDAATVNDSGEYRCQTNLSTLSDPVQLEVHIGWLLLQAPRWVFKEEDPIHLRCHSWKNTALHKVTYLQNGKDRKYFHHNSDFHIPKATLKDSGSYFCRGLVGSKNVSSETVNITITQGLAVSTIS
T20 sequence (P12314 16-288 limits assumed): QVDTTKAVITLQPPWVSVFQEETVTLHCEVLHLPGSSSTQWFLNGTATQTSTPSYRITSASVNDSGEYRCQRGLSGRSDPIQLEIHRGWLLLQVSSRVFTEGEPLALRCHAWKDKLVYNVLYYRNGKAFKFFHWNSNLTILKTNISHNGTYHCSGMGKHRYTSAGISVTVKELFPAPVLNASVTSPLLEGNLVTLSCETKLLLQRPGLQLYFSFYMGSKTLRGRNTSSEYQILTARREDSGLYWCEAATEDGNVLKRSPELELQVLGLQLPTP
T8 sequence (P31041 20-149 limits assumed): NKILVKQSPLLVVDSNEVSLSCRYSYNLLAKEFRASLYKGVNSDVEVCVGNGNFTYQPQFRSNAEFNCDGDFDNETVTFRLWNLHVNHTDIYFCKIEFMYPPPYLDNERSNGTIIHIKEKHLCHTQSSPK
Chain of PD-L1 on engineered CHO-K1 artificial Antigen Presenting Cells (aAPC) (Q9NZQ7 19-290 limits assumed, change not shown): as the sequence (Q9NZQ7 19-290) above
T9 sequence (G7PSE7 entry or part of it): as the sequence (Q9NZQ7 19-238 limits assumed) above, with A33T, A34S, S62N, R68Q, Q82R, F173L, T185A, T192I, H215L counted along it
T6 sequence (P08637 17-208 limits assumed): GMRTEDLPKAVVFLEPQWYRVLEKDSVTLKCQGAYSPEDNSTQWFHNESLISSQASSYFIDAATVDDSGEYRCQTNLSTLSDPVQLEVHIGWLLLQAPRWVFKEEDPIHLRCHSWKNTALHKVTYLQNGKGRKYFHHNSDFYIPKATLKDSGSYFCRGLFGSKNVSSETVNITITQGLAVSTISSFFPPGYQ
T4 sequence (P08637 17-208 F176V limits assumed): as the sequence (P08637 17-208 limits assumed) above, with F160V counted along it

- EC50 (read off the curve) [1]: ~0.6 µg/mL
- EC50 (read off the curve): RLU in the PD-1/PD-L1 blockade bioassay (blocked partner m28) [2]: ~0.02 µg/mL
B1: S79 mAb (antibody, V domains shown)
VH: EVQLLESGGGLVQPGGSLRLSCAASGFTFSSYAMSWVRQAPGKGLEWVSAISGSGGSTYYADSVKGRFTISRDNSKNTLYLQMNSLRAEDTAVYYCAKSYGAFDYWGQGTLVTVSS
VL: QSALTQPASVSGSPGQSITISCTGTSSDVFRPPLVSWYQQHPGKAPKLMIYFASLRPSGVSNRFSGSKSGNTASLTISGLQAEDEADYYCSSWDHTGDGHVFGGGTKLTVL
notes: also called bivalent PD-L1 mAb based on the anti-PD-L1 arm S79

- EC50 (read off the curve) [1]: ~0.9 µg/mL
- Kd [9]: 11100 nM
- Kd [10]: 1.8 nM
- Kd [11]: 0.79 nM
- Kd [12]: 0.3 nM
- Kd [13]: 54 nM
- Kd [17]: 7.1 nM
- Kd [18]: 0.06 nM
- Kd [19]: 8.6 nM
- Kd [20]: ~54 nM
- Kd [21]: 804 nM
B2: AI3S79/N (bispecific antibody, human IgG1, kappa, lambda, L234A L235A)
heavy: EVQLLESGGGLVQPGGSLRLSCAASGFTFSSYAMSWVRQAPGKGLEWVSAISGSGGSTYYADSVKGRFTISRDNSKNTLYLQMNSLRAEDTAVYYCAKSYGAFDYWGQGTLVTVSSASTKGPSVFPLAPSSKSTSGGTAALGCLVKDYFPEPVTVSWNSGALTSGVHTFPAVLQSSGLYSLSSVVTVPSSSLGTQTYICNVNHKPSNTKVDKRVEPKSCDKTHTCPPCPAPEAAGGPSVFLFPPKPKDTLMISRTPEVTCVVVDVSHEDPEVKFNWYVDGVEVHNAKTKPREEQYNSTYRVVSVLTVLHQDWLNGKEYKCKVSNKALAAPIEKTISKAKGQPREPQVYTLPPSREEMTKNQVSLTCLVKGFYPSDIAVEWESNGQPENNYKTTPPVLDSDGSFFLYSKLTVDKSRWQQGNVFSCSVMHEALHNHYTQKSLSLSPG
light 1: not shown
light 2: QSALTQPASVSGSPGQSITISCTGTSSDVFRPPLVSWYQQHPGKAPKLMIYFASLRPSGVSNRFSGSKSGNTASLTISGLQAEDEADYYCSSWDHTGDGHVFGGGTKLTVLGQPKAAPSVTLFPPSSEELQANKATLVCLISDFYPGAVTVAWKADSSPVKAGVETTTPSKQSNNKYAASSYLSLTPEQWKSHRSYSCQVTHEGSTVEKTVAPTECS
notes: also called PD-L1xCD28 bsAb; PD-L1xCD28 κλ body
- binding result [3]: no binding (tested: highest tested concentration: 2000 nM)
- binding result [4]: no binding (tested: highest tested concentration: 2000 nM)
- binding result [5]: no binding (tested: highest tested concentration: 2000 nM)
- binding result [6]: no binding (tested: highest tested concentration: 2000 nM)
- binding result [7]: no binding (tested: highest tested concentration: 2000 nM)
- binding result [8]: no binding (tested: highest tested concentration: 2000 nM)
- binding result [14]: no binding (tested: highest tested concentration: 2000 nM)
- binding result [15]: no binding (tested: highest tested concentration: 2000 nM)
- binding result [16]: no binding (tested: highest tested concentration: 2000 nM)
- binding result [22]: no binding (tested: highest tested concentration: 2000 nM)
